From article PMC12177071, “Divergence in a eukaryotic transcription factor’s co-TF dependence involves multiple intrinsically disordered regions”

Columns and labels:
CgPho4 DBD [1] = molecular target: T1, CgPho4 DBD (Candida glabrata, UniProt Q6FVW0 452-533); test: BLI; mean of 5 replicates; 30 C; BLI: 1x PBS pH 7.4, 0.01% BSA, 0.002% Tween-20, 0.005% sodium azide, 30 C; EMSA: 20 mM Tris-HCl pH 8, 150 mM KCl, 10% glycerol, 5 mM MgCl2, 1 mM EDTA, 1 mM DTT, 4 C; details: protein: recombinant; tags: C-terminal 6xHis; chain copies: 2; blunt
T1 sequence: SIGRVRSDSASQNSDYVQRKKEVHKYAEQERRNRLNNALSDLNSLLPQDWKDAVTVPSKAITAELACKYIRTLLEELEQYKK

ScPho4 DBD [2] = molecular target: T2, ScPho4 DBD (Saccharomyces cerevisiae, UniProt P07270 236-312); test: as above; details: protein: recombinant; tags: C-terminal 6xHis; chain copies: 2; blunt
T2 sequence: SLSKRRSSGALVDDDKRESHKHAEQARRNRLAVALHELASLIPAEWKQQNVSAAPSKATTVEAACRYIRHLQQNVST

CgPho4 DBD [3] = molecular target: T1, CgPho4 DBD; test: EMSA; 5 mM MgCl2, 1 mM EDTA; 4 C; BLI: 1x PBS pH 7.4, 0.01% BSA, 0.002% Tween-20, 0.005% sodium azide, 30 C; EMSA: 20 mM Tris-HCl pH 8, 150 mM KCl, 10% glycerol, 5 mM MgCl2, 1 mM EDTA, 1 mM DTT, 4 C; details: protein: recombinant; tags: C-terminal 6xHis; chain copies: 2; label: IR700; blunt
ScPho4 DBD [4] = molecular target: T2, ScPho4 DBD; test: as above; details: protein: recombinant; tags: C-terminal 6xHis; chain copies: 2; label: IR700; blunt

B1: 17-bp consensus E-box, BLI probe (dsDNA)
DNA 1: CTAGTCCCACGTGTGAG
DNA 2: CTCACACGTGGGACTAG
- Kd (CgPho4 DBD [1]): 1.2 nM
- Kd (ScPho4 DBD [2]): 5.2 nM

B2: 17-bp consensus E-box, EMSA probe (dsDNA)
DNA 1: CTAGTCCCACGTGTGAG
DNA 2: CTCACACGTGGGACTAG
- Kd (CgPho4 DBD [3]): 1.9 nM
- Kd (ScPho4 DBD [4]): 5.5 nM
